Measured values taken from paper PMC9357085, “Three pairs of surrogate redox partners comparison for Class I cytochrome P450 enzyme activity reconstitution” (Communications Biology, 2022).
Residue numbers refer to the chain shown, from its start. Each block holds one molecule with its values, some of them ahead of it.

What was measured:
[1] = target: T1, SelFdR0978 (Synechococcus elongatus, UniProt Q31PL1); assay: FAD released by guanidinium chloride, absorbance at […] nm; format: binding; conditions: FAD-bound flavoprotein as purified
T1 construct: gene Synpcc7942_0978

[2] = target: T2, EpoK (CYP167A1) (Sorangium cellulosum, UniProt Q9KIZ4); assay: conversion assay, reconstituted system; format: biochemical; conditions: SelFdx1499/SelFdR0978 as redox partners
T2 construct: His-tagged, expressed in E. coli (general P450 statement)

[3] = target: T3, PdR (putidaredoxin reductase) (Pseudomonas putida, UniProt P16640); assay: DCIP reduction, absorbance at […] nm; format: biochemical; conditions: 30 °C
T3 construct: gene camA; His-tagged, expressed in E. coli, Ni-NTA purified
T3 sequence (P16640 1-422): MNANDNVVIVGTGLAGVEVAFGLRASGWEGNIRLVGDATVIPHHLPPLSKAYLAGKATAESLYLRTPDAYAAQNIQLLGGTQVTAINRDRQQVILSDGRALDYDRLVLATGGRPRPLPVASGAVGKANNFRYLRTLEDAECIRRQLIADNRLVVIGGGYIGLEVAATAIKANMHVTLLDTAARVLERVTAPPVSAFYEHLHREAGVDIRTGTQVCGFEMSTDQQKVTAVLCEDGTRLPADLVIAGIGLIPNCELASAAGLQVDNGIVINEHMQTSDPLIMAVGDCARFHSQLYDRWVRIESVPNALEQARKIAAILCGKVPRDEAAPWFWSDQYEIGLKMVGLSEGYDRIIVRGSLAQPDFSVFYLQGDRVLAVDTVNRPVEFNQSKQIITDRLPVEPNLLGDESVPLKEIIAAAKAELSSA

[4] = target: T4, AdR (adrenodoxin reductase) (Bos taurus, UniProt P08165); assay: DCIP reduction, absorbance at […] nm; format: biochemical; conditions: 30 °C
T4 construct: gene FDXR; C-terminal His-tag, expressed in E. coli; template plasmid pBAR-bAdR
T4 sequence (P08165 33-492): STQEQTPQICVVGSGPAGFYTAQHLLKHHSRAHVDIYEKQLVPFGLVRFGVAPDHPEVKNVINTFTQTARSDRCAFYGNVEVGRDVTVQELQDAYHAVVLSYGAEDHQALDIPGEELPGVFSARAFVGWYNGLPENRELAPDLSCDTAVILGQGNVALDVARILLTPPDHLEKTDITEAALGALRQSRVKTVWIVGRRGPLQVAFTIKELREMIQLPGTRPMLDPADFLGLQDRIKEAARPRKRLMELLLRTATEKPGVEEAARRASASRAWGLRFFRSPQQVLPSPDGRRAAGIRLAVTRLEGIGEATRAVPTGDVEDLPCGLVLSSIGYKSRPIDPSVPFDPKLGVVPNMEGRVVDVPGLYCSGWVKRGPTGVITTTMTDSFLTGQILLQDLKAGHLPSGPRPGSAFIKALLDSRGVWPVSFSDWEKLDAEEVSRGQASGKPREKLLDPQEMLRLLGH

[5] = target: T1, SelFdR0978; assay: DCIP reduction, absorbance at […] nm; format: biochemical; conditions: 30 °C
[6] = target: T5, Bovine adrenodoxin reductase (bovine) (UniProt P08165)
T5 sequence: T4 sequence (P08165 33-492)

[7] = target: plastidic-type ferredoxin reductase SelFdR0978 from Synechococcus elongatus PCC 7942 (Synechococcus elongatus PCC 7942)
[8] = target: T6, putidaredoxin reductase from Pseudomonas putida (Pseudomonas putida) (UniProt P16640)
T6 sequence: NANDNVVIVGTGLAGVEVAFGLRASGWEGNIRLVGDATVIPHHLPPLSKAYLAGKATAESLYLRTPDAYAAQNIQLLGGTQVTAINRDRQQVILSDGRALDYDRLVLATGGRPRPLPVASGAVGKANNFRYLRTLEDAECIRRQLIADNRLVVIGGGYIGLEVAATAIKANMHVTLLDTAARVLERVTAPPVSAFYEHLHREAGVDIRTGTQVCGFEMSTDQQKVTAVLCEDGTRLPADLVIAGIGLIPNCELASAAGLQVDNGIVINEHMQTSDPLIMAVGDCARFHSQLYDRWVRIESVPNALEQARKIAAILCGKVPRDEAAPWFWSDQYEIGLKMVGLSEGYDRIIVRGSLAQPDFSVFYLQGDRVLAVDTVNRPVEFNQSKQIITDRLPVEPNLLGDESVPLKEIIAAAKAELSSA

[9] = target: T5, Bovine adrenodoxin reductase (bovine); remark: listed apart in the source
[10] = target: T7, P450sca-2 (CYP105A3) (Streptomyces carbophilus, UniProt Q59831); assay: HPLC/HRMS of products, reconstituted system; format: biochemical; conditions: SelFdx1499/SelFdR0978 as redox partners (1:10:5), NADP+ with regeneration, pH 7.4, 30 °C, 2 h
T7 construct: His-tagged, expressed in E. coli, Ni-NTA purified
T7 sequence (Q59831 2-410): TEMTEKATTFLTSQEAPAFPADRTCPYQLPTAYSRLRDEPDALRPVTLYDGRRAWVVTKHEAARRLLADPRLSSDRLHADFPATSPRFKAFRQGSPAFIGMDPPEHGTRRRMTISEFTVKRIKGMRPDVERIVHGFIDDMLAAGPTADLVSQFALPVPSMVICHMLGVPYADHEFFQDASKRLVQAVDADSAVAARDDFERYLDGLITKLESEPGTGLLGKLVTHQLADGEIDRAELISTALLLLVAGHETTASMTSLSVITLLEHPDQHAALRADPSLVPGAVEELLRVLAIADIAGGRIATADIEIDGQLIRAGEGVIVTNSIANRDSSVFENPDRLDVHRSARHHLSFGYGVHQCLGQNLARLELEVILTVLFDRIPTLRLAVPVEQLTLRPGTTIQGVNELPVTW

[11] = target: plastidic-type ferredoxin reductase SelFdR0978 from Synechococcus elongatus PCC 7942 (Synechococcus elongatus PCC 7942); remark: listed apart in the source
[12] = target: T6, putidaredoxin reductase from Pseudomonas putida (Pseudomonas putida); remark: listed apart in the source
[13] = electron acceptor, 1 mM NADPH or NADH
[14] = electron donor at 1 mM, DCIP as acceptor

T1 sequence (Q31PL1 1-403): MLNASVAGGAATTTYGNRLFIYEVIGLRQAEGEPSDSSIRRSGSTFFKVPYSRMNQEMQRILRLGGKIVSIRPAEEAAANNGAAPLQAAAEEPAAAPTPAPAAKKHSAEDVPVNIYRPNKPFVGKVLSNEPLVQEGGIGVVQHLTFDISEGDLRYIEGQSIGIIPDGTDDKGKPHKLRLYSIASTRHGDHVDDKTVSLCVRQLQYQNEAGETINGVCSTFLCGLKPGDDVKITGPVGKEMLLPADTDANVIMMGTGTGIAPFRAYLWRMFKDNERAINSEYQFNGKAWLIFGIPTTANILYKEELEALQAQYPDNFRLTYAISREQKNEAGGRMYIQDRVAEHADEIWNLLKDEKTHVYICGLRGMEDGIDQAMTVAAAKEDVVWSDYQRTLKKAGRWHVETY
T2 sequence (Q9KIZ4 whole entry): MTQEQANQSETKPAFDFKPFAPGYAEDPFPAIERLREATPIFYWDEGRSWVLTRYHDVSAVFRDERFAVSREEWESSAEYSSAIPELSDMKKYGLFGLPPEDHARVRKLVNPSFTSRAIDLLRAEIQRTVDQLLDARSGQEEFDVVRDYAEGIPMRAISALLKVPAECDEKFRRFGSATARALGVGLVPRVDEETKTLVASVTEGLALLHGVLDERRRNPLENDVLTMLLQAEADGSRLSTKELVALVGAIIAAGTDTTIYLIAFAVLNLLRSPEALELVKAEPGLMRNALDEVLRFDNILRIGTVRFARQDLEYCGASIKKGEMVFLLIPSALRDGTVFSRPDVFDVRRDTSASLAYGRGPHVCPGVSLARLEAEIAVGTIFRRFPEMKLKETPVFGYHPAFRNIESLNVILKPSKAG

- conversion rate of YC-17 by PikC (1 uM P450, 10 uM Fdx, 5 uM FdR), wild-type reference [6]: 63.8%
- conversion rate of YC-17 by PikC (1 uM P450, 10 uM Fdx, 5 uM FdR), wild-type reference [7]: 15.6%
- conversion rate of YC-17 by PikC (1 uM P450, 10 uM Fdx, 5 uM FdR), wild-type reference [8]: 16.5%
- Km for the redoxin in cyt c reduction (NAD(P)H, 1 nM FdR, 0-40 uM Fdx, 30 uM cyt c) [9]: 14.6 µM
Molecule: Bovine adrenodoxin Adx(4-108) (domain or fragment)

- conversion rate of YC-17 by PikC (1 uM P450, 10 uM Fdx, 5 uM FdR), wild-type reference [6]: 30.1%
- conversion rate of YC-17 by PikC (1 uM P450, 10 uM Fdx, 5 uM FdR), wild-type reference [7]: 99.1%
- conversion rate of YC-17 by PikC (1 uM P450, 10 uM Fdx, 5 uM FdR), wild-type reference [8]: 24.7%
- Km for the redoxin in cyt c reduction (NAD(P)H, 1 nM FdR, 0-40 uM Fdx, 30 uM cyt c) [11]: 14.2 µM
Molecule: Fe2S2 ferredoxin SelFdx1499 from Synechococcus elongatus PCC 7942 (natural protein)

- conversion rate of YC-17 by PikC (1 uM P450, 10 uM Fdx, 5 uM FdR) [7]: 9.2%
B2: Adx-M1 (domain or fragment)
chain: EDKITVHFINRDGETLTTKGKIGDALLDVVVQNNLDIDGFGACEGTLACSTCHLIFEQHIFEKLEAIADEEAAMLALAYGLTDRSRLGCQICLTKAMDNMTVRVP

- conversion rate of YC-17 by PikC (1 uM P450, 10 uM Fdx, 5 uM FdR) [8]: 7.2%
B4: Adx-M3 (domain or fragment)
chain: B2 chain with A25S, D38A, G39A, A42L, A68T, A72N, A73D, A76D

The next lines start with the molecule.

Molecule: Cc1cc2nc3c(=O)[nH]c(=O)nc-3n(C[C@H](O)[C@H](O)[C@H](O)COP(=O)(O)OP(=O)(O)OC[C@H]3O[C@@H](n4cnc5c(N)ncnc54)[C@H](O)[C@@H]3O)c2cc1C [FAD]
- FAD released by guanidinium chloride, absorbance at 450 nm [1]: extinction coefficients of the flavin-bound SelFdR0978

Molecule: C/C1=C/C[C@@H](/C(C)=C/c2csc(C)n2)OC(=O)C[C@H](O)C(C)(C)C(=O)[C@H](C)[C@@H](O)[C@@H](C)CCC1 [epothilone D]
- conversion assay, reconstituted system [2]: EpoK catalyzes the epoxidation of C12-C13 double bond in epothilone D to form epothilone B

Molecule: O=C1C(Cl)=CC(=Nc2ccc(O)cc2)C=C1Cl [DCIP]
- DCIP reduction, absorbance at 600 nm [3, 13]: SelFdR0978 was more efficient in DCIP reduction than both AdR and PdR
- DCIP reduction, absorbance at 600 nm [4, 13]: SelFdR0978 was more efficient in DCIP reduction than both AdR and PdR
- DCIP reduction, absorbance at 600 nm [5, 13]: SelFdR0978 was more efficient in DCIP reduction than both AdR and PdR

Molecule: NC(=O)C1=CN([C@@H]2O[C@H](COP(=O)(O)OP(=O)(O)OC[C@H]3O[C@@H](n4cnc5c(N)ncnc54)[C@H](OP(=O)(O)O)[C@@H]3O)[C@@H](O)[C@H]2O)C=CC1 [NADPH]
- DCIP reduction, absorbance at 600 nm [4, 14]: AdR only exhibited a slightly increased activity with NADPH than with NADH
- DCIP reduction, absorbance at 600 nm [5, 14]: SelFdR0978 showed a strong preference for NADPH over NADH

Molecule: CC[C@H](C)C(=O)O[C@H]1CCC=C2C=C[C@H](C)[C@H](CC[C@@H](O)C[C@@H](O)CC(=O)O)[C@H]21
- HPLC/HRMS of products, reconstituted system [10]: P450sca-2 produced pravastatin as the main product in all positive reactions

Molecule: NC(=O)C1=CN([C@@H]2O[C@H](COP(=O)(O)OP(=O)(O)OC[C@H]3O[C@@H](n4cnc5c(N)ncnc54)[C@H](O)[C@@H]3O)[C@@H](O)[C@H]2O)C=CC1 [NADH]
- DCIP reduction, absorbance at 600 nm [3, 14]: PdR preferred NADH to NADPH

B1: putidaredoxin from Pseudomonas putida (natural protein)
chain: SKVVYVSHDGTRRELDVADGVSLMQAAVSNGIYDIVGDCGGSASCATCHVYVNEAFTDKVPAANEREIGMLECVTAELKPNSRLCCQIIMTPELDGIVVDVPDRQW
- conversion rate of YC-17 by PikC (1 uM P450, 10 uM Fdx, 5 uM FdR), wild-type reference [6]: 0%
- conversion rate of YC-17 by PikC (1 uM P450, 10 uM Fdx, 5 uM FdR), wild-type reference [7]: 0%
- conversion rate of YC-17 by PikC (1 uM P450, 10 uM Fdx, 5 uM FdR), wild-type reference [8]: 15.6%
- Km for the redoxin in cyt c reduction (NAD(P)H, 1 nM FdR, 0-40 uM Fdx, 30 uM cyt c) [12]: 22.1 µM

B3: Adx-M2 (domain or fragment)
chain: B2 chain with A25S, D38A, E44A, L47A, A68T, A72N, A73D
- conversion rate of YC-17 by PikC (1 uM P450, 10 uM Fdx, 5 uM FdR) [6]: 67.8%
